Measured values taken from patent US20130177572A1 (X BODY, published 2013).

Experiments:
[1] = target: T1, human PDGFR-hIgG1-Fc chimeric fusion protein (human, UniProt P09619 33-530); test: SPR (Biacore T100), PDGFR-Fc captured by anti-6His antibody, 1:1 model
T1 construct: For the IgG assay it was captured by an anti-6His antibody, which points to a His tag; also called recombinant human PDGFR-hIgG1-Fc chimeric fusion protein (R&D, #385-PR-100/CF); human PDGFRβ; not shown: human IgG1 Fc
Method: (§1) IgG1 to human PDFGR were determined using surface plasmon resonance on a Biacore T100. Briefly, recombinant human PDGFR-hIgG1-Fc chimeric fusion protein (R&D, #385-PR-100/CF) was immobilized on a Series CM5 sensorchip coupled with anti-hIgG1 Fc monoclonal antibody (for the VH and ScFv assays) or anti-6His antibody (for the IgG assay). […] The data was analyzed using the Biacore T100 analysis software using a 1:1 model. Mass transport was checked and avoided to allow accurate measurements. All data was double referenced according to Biacore standard protocol.

[2] = target: T1, human PDGFR-hIgG1-Fc chimeric fusion …; test: SPR (Biacore T100), PDGFR-Fc captured by anti-hIgG1 Fc, VH injected, 1:1 fit
Method: (§2) The R4 framework shuffled human and mouse PDGFRβ enriched VH domain pool selected in Example 2 was cloned into E. coli expression vectors, produced and purified. The binding kinetics of the VH domains to human and mouse PDFGR was determined using surface plasmon resonance on a Biacore T100. Briefly, human and mouse PDGFR-hIgG1-Fc chimeric fusion protein were separately immobilized using a Series CM5 sensorchip (CM5) coupled to anti-hIgG1 Fc monoclonal antibody. For each cycle, the PDGFR fusion protein was first captured, followed by the injection of VH for 115 seconds at a flow rate of 100 uL/min (association). Immediately following the association phase is a dissociation phase of 600 seconds. The surface was regenerated at each cycle with a single injection of 3M MgCl2 (10 uL/min, 60 seconds). Multiple concentrations of VH domain were injected (0.55 nM-40 nM) and the resulting sensorgram were analyzed with T100 Evaluation software. The binding kinetics was determined using 1:1 binding curve fitting.

[3] = target: T2, mouse PDGFR-hIgG1-Fc chimeric fusion protein (mouse; human, UniProt P05622 32-530, limits assumed); test: SPR (Biacore T100), mouse PDGFR-hIgG1-Fc captured by anti-hIgG1 Fc, 1:1 fit
T2 construct: also called mouse PDGFRβ; mouse PDFGR; not shown: human IgG1 Fc
T2 sequence (looked up): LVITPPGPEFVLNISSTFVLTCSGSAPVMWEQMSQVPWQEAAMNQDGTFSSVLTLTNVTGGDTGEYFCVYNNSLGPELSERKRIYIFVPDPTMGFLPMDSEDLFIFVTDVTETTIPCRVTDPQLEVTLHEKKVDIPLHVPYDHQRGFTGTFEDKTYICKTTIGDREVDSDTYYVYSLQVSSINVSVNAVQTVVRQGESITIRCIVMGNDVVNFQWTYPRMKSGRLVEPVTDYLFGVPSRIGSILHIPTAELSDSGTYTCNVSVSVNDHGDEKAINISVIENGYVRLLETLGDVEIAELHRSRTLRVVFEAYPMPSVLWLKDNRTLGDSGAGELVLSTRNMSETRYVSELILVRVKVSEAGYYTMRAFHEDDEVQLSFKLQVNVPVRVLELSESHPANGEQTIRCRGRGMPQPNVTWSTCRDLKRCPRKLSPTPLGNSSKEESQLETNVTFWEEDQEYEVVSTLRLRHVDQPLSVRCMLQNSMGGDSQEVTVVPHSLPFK
Method: as §2

[4] = target: T1, human PDGFR-hIgG1-Fc chimeric fusion …; test: SPR (Biacore T100), human PDGFR-hIgG1-Fc captured by anti-hIgG1 Fc, 1:1 fit; the text prints it rounded as 93 pM
Method: as §2

[5] = target: T1, human PDGFR-hIgG1-Fc chimeric fusion …; test: SPR (Biacore T100), human PDGFR-hIgG1-Fc captured by anti-hIgG1 Fc, 1:1 fit
Method: as §2

[6] = target: T1, human PDGFR-hIgG1-Fc chimeric fusion …; test: SPR competition (Biacore T100): captured PDGFR-Fc, VH 0.46-60 nM, then 10 nM PDGFBB
Method: Briefly, human PDGFR-hIgG1-Fc chimeric fusion protein was immobilized using a Series CM5 sensorchip coupled with anti-hIgG1 Fc monoclonal antibody. […] For each successive cycle, the PDGFR fusion protein was first captured then VH domain was then injected for 120 seconds. […] The surface was regenerated at each cycle with a single injection of 3M MgCl2 (10 uL/min, 60 seconds).

[7] = target: T3, human PDGFRβ (human, UniProt P09619 33-530, limits assumed); test: solution equilibrium binding: 35S-Met labelled in vitro translated protein, human PDGFRβ titrated (0 to 20 nM), capture on protein A beads, scintillation counts
T3 construct: also called hPDGFRβ; recombinant human PDGFRβ
Method: The affinity of several scFvs was determined by solution based equilibrium binding assay. Specifically, 120 pmol of scFv RNA was translated into free protein with ³⁵S Met incorporated. The translated reaction mixture was 3-fold diluted in binding buffer containing 1×PBS with 0.025% triton, 1 mg/mL BSA and 0.1 mg/mL sssDNA. […] The diluted scFv mixture was incubated with hPDGFRβ in final volume of 100 ul on Kingfisher plates (Thermofisher Scientific, 97002084). Following incubation, 25 ul of protein A magnetic beads (Invitrogen) were used to capture the PDGFRβ from solution. The captured PDGFRβ was washed and eluted in kingfisher Reader (Thermofisher Scientific). The amount of scFv (labeled with ³⁵S Met) bound to the magnetic bead-immobilized hPDGFRβ was counted using a scintillation counter and the Kd was calculated with Graph Pad Prism 5.

[8] = target: T1, human PDGFR-hIgG1-Fc chimeric fusion …; test: SPR (Biacore T100), PDGFR-Fc captured by anti-hIgG1 Fc, 1:1 model
Method: as §1

[9] = target: T3, human PDGFRβ; test: ELISA: plate coated with 2 ug/mL human PDGFRβ or human IgG, crude scFv lysate, anti-flag-HRP, OD450
Method: (§3) A PDGFRβ binding ELISA assay was performed to assess the binding of the scFv to immobilized PDGFRβ and to determine the EC50. Specifically, 2 ug/mL of human PDGFRβ and human Fc or IgG in PBS was immobilized on Maxisorp plates at 4° C. overnight. The plate was then washed and blocked with superblock. In vitro translated crude scFv lysate was diluted 1:3 in 1×PBST. 100 ul of the diluted scFv lysate was loaded into each well of Maxisorp plates and incubated for 1 hour at room temperature. scFv that bound to immobilized PDGFRβ was detected by anti-flag antibody-HRP at 1:5000 dilution and a TMB substrate. The plate was read on a Molecular Device plate reader with end point assay at OD 450 nm.

[10] = target: T3, human PDGFRβ; test: solution equilibrium binding: 35S-Met labelled in vitro translated protein, human PDGFRβ titrated, capture on protein A beads, scintillation counts
Method: The affinity of several scFvs was determined by solution based equilibrium binding assay. Specifically, 120 pmol of scFv RNA was translated into free protein with ³⁵S Met incorporated. The translated reaction mixture was 3-fold diluted in binding buffer containing 1×PBS with 0.025% triton, 1 mg/mL BSA and 0.1 mg/mL sssDNA. Human PDGFRβ was diluted in the same binding buffer to final concentrations from 100 nM to 0 nM. The diluted scFv mixture was incubated with hPDGFRβ in final volume of 100 ul on Kingfisher plates (Thermofisher Scientific, 97002084). Following incubation, 25 ul of protein A magnetic beads (Invitrogen) were used to capture the PDGFRβ from solution. The captured PDGFRβ was washed and eluted in kingfisher Reader (Thermofisher Scientific). The amount of scFv (labeled with ³⁵S Met) bound to the magnetic bead-immobilized hPDGFRβ was counted using a scintillation counter and the Kd was calculated with Graph Pad Prism 5.

[11] = target: T4, mouse PDGFRβ (mouse, UniProt P05622 32-530, limits assumed); test: 35S-Met labelled in vitro translated VH, binding to target
T4 sequence (looked up): T2 sequence (looked up)

[12] = target: T1, human PDGFR-hIgG1-Fc chimeric fusion …; test: SPR (Biacore T100), PDGFR-hIgG1-Fc captured by anti-hIgG1 Fc, VH injected; series 0 to 120 in the legend box, unit inferred
[13] = target: T3, human PDGFRβ; test: ELISA: plate coated with 2 ug/mL human PDGFRβ or human Fc, in vitro translated crude lysate diluted 1:3, anti-flag-HRP, OD450
Method: as §3

T1 sequence (P09619 33-530 limits assumed, stated change not applied): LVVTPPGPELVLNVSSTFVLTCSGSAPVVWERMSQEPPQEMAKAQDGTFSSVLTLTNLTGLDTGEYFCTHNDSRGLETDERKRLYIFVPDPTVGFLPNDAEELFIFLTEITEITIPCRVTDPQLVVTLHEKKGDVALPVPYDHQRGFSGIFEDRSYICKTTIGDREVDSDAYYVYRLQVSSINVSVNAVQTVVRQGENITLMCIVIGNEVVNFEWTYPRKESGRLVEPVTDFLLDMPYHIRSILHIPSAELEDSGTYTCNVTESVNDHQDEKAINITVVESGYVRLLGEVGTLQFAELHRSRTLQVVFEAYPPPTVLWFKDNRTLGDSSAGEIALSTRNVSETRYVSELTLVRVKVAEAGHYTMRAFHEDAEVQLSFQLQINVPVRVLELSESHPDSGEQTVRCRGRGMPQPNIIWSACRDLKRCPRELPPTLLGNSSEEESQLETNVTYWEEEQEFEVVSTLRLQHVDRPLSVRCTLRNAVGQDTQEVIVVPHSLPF
T3 sequence (P09619 33-530 limits assumed): as the sequence (P09619 33-530 limits assumed, stated change not applied) above

B1: XB2202/A4 IgG1 (antibody)
heavy: not shown
light: DVVMTQSPSSLSASVGDRVTITCQASQDISNWLNWYQQKPGKAPKLLIYEASNLETGVPSRFSGSGSGTDFTFTISSLQPEDIATYYCQQYNNVLRTFGQGTKVEIKRTVAAPSVFIFPPSDEQLKSGTKVEIKRTVAAPSVFIFPPSDEQLKSGTASVVCLLNNFYPREAKVQWKVDNALQSGNSQESVTEQDSKDSTYSLSSTLTLSKADYEKHKVYACEVTHQGLSSPVTKSFNRGEC
notes: Full-length heterotetrameric IgG1 expressed in 293T cells; also called XB2202/A4 IgG1 antibody
Question: For B1, which Kd [1] is on record?
Answer: Its Kd is 1.59 nM.

Question: And the koff [1]?
Answer: The koff was 0.00156 s⁻¹.

Question: And the kon [1]?
Answer: Its kon is 980000 M⁻¹ s⁻¹.

B2: XB2708 VH domain (other)
VH: QVQLVQSGGGVVQPGGSLRLSCAASGFTSRSYGMHWVRQAPGKGLEWVAFILFDGNNKYYADSVKGRFTISSDNSKNTLYLQMNSLRAEDTAVYYCATHGGDRSYWGQGTLVTVSS
notes: Isolated (unpaired) human VH domain, framework-shuffled derivative of XB1511; produced in E. coli for SPR
Question: What does the source list for B2?
Answer: Kd [2]: 0.093 nM; koff [2]: 0.000927 s⁻¹; Kd [3]: 1.08 nM; koff [3]: 0.00692 s⁻¹; kon [3]: 6.41e+06 M⁻¹ s⁻¹; Kd [4]: 0.0933 nM; kon [5]: 9.94e+06 M⁻¹ s⁻¹

B3: XB2202 VH domain (other)
VH: QVQLVQSGAEVKKPGSSVRVSCKASGGTFSRHAISWVRQAPGQGLEWIGGILPILKTPNYAQRFQGRVTINADESTSTVYMEMSSLRSEDTAVYYCATHGGDRSYWGQGTLVTVSS
notes: as for B2
Question: Which IC50 [6] does the source give for B3 here?
Answer: Its IC50 is < 5 nM.

Question: What about the Kd [7] of the same binder?
Answer: The Kd was 0.234 nM.

Question: And the Kd [8]?
Answer: The Kd was 0.227 nM.

Question: What about the koff [8] of the same binder?
Answer: The koff was 0.00295 s⁻¹.

Question: And the kon [8]?
Answer: Its kon is 1.3e+07 M⁻¹ s⁻¹.

Question: What about the Kd [2] of the same binder?
Answer: The Kd was 0.249 nM.

Question: And the koff [2]?
Answer: The koff was 0.00186 s⁻¹.

Question: And the Kd [3]?
Answer: Its Kd is 0.925 nM.

Question: And the koff [3]?
Answer: Its koff is 0.00289 s⁻¹.

Question: And the kon [3]?
Answer: Its kon is 3.13e+06 M⁻¹ s⁻¹.

Question: What about the Kd [5] of the same binder?
Answer: Its Kd is 0.243 nM.

Question: What about the koff [5] of the same binder?
Answer: The koff was 0.00175 s⁻¹.

Question: And the kon [5]?
Answer: The kon was 7.19e+06 M⁻¹ s⁻¹.

B4: C2 (scFv, V domains shown)
VH: B3 VH
VL: DIQMTQSPSSLSASVGDRVAIACRPSQDIGTDLGWYQQKPGKAPKLLIFDSSTLQSGVPSRFSGSLSGTDFILTITNLQPEDFATYYCLQDYSFPYTFGQGTKLQIKR
notes: also called scFv XB2202-C2; XB2202/C2 scFv
Question: Which Kd [7] does the source give for B4 here?
Answer: The Kd was 0.018 nM.

B5: A5 (scFv, V domains shown)
VH: B3 VH
VL: SYELTQPPSASASLGASVTLTCTVSSGYRSYEVDWFQQRPGKGPRFVMRVGTGGIVGSRGDGIPDRFSVWGSGLNRYLTIEDIQEEDESDYYCGADHGSGSNLVYVFGTGTKVTVL
notes: also called XB2202/A5 scFv
Question: Does B5 bind [9]?
Answer: Result: no binding

B6: XB1511 VH domain (other)
VH: QVQLVQSGAEVKKPGSSVKVSCKASGGTFSSYAISWVRQAPGQGLEWMGGIIPIFGTANYAQKFQGRVTITADESTSTAYMELSSLRSEDTAVYYCAIHGGDRSYWGQGTLVTVSS
notes: Isolated (unpaired) human VH domain; also called clone A4; A4 XB1511
Question: What does the source list for B6?
Answer: Kd [10]: 31.9 nM; binding result [11]: no binding (tested: 100 nM); Kd [12]: 14.7 nM

B7: C7 scFv (scFv, V domains shown)
VH: B6 VH
VL: DIVMTQTPLSLSVTPGQPASISCKSSQSLLHSDGKTHLFWYLQRPGQSPQLLIYEVSGRFSGVSERFSGSGSGTDFTLKISRVEAEDVGVYYCMQGLHIPHTFGQGTKVEIK
notes: VL of the second round pool paired with XB1511 VH
Question: Does B7 bind [13]?
Answer: Result: binds
